{"source": "paper PMC10015519", "key": {"[1]": {"biological_target": "PF-D-Trimer (pre-fusion trimerized SARS-CoV-2 Delta spike protein ectodomain fused to the Trimer Domain) (SARS-CoV-2) (UniProt P0DTC2)", "assay": "SEC-MALS"}, "[2]": {"biological_target": "PF-D-Trimer (pre-fusion trimerized SARS-CoV-2 Delta spike protein ectodomain fused to the Trimer Domain) (SARS-CoV-2) (UniProt P0DTC2)", "assay": "reducing and non-reducing SDS-PAGE"}, "[3]": {"biological_target": "PF-W-Trimer (pre-fusion trimerized SARS-CoV-2 WA1 spike protein ectodomain fused to the Trimer Domain) (SARS-CoV-2) (UniProt P0DTC2)", "assay": "SEC-MALS"}, "[4]": {"biological_target": "PF-W-Trimer (pre-fusion trimerized SARS-CoV-2 WA1 spike protein ectodomain fused to the Trimer Domain) (SARS-CoV-2) (UniProt P0DTC2)", "assay": "reducing and non-reducing SDS-PAGE"}}}
{"substance": "PF-D-Trimer (pre-fusion trimerized SARS-CoV-2 Delta spike protein ectodomain fused to the Trimer Domain) (from UniProt P0DTC2 14-1213)", "values": [{"measurement": "stoichiometry N", "setting": "[1]", "result": 3}, {"measurement": "stoichiometry N", "setting": "[2]", "result": 3}]}
{"substance": "PF-W-Trimer (pre-fusion trimerized SARS-CoV-2 WA1 spike protein ectodomain fused to the Trimer Domain) (from UniProt P0DTC2 14-1213)", "values": [{"measurement": "stoichiometry N", "setting": "[3]", "result": 3}, {"measurement": "stoichiometry N", "setting": "[4]", "result": 3}]}
